Earlier results on eight substances are cited in PMC2818086.

One may read the pKa as the negative logarithm of the acid dissociation constant.

The subject of this data set is His64. The experiment in a line: kinetics. As to conditions: 25 °C; free enzyme in solution during catalysis (zinc-loaded).
Regarding “Carbonic anhydrase II (HCA II) N67L (Homo sapiens; N67L)”, the pKa is listed as 7.5.
Consider “Carbonic anhydrase II (HCA II), wild type (Homo sapiens)”, for which the pKa is 7.2.
For “Carbonic anhydrase II (HCA II) N62L (Homo sapiens; N62L)”, the pKa is on record as 6.0.
For “Carbonic anhydrase II (HCA II) N62T (Homo sapiens; N62T)”, the pKa was 7.0.
Take “Carbonic anhydrase II (HCA II) N62V (Homo sapiens; N62V)”: the pKa was 5.9.
Consider “Carbonic anhydrase II (HCA II) N62A (Homo sapiens; N62A)”, for which the pKa was 6.2.
In the case of “Carbonic anhydrase II (HCA II) N62D (Homo sapiens; N62D)”, the pKa is 8.4.
For “Carbonic anhydrase II (HCA II) Y7F (Homo sapiens; Y7F)”, the pKa is 6.0.
